According to US9561272B2, “Compositions and methods for modulating immune responses” (The University of Queensland, priority 2006, dated 2017):

Tests used:
[1] = cited from earlier work
[2] = Entrapment efficiency of NF-κB inhibitor and antigen in liposomes (% EE); assay type: physicochemical; settings: EPC liposomes; for entrapment efficiency of NF-κB inhibitor in liposomes: after removal of non-entrapped drug; for entrapment efficiency of protein antigen in liposomes: freeze-thawing cycle repeated 5 times
Method: Entrapment efficiency of protein following this process was typically at least 20%, approximately 60% for Bay and greater than 80% for both Quecertin and Curcumin. Empty, NF-κB inhibitor or protein only liposomes were prepared as above, by omitting the relevant bioactive/s. Following removal of non-entrapped NF-κB inhibitor and antigen, the amount of NF-κB inhibitor and antigen entrapped in liposome could be quantified by assay method. The entrapment efficiency was expressed as: [formula] […] The resulting solution was then kept at −20° C. After 30 minutes, the sample was centrifuged at maximum speed at 4° C. for 10 minutes (EBA 12R centrifuge, Hettich Zentrifugen, Germany) to remove precipitated protein. The concentration of Bay 11-7082 in the resulting supernatant was then assayed and calculated based on the established calibration (with consideration to the dilutions performed) (data not shown). […] The concentration of either quercetin or curcumin in the resulting solution was then assayed and calculated based on the established calibration curves (with consideration to the dilutions performed). […] The quantity of model antigen entrapped in liposomes was determined by a standard bicinchoninic acid (BCA) protein assay with slight modification. Briefly, liposomes loaded with OVA or mBSA were lysed using ethanol or iso-propanol at 20-fold dilution, respectively, and then stored at −20° C. After 30 minutes, the sample was centrifuged at maximum speed at 4° C. for 10 minutes (EBA 12R centrifuge, Hettich Zentrifugen, Germany). The supernatant containing lipid and NF-κB inhibitor was discarded. The protein pellet was then placed in an Alpha 2-4 LD Freeze-drier (Alpha 2-4 LD Freeze-drier, Martin Christ, Germany) to remove remaining solvent. One hundred μL of 2.5% w/v sodium dodecyl sulfate (SDS) solution (for OVA) or water (for mBSA) was added to redissolve the protein pellet. SDS was required for aiding to re-dissolve OVA pellet. The resulting protein solution was mixed with 2 mL of BCA solution (Pierce Biotechnology Inc., USA) and incubated at 37° C. for 30 minutes. After incubation, the absorbance of the solution was measured using a Cary 50 UV-VIS spectrophotometer (Varian, Calif., USA) at a wavelength of 562 nm. The concentration of OVA and mBSA was calculated on the basis of calibration curves established using a series of known concentrations of either OVA or mBSA solution ranging from 0.25 mg/mL to 2 mg/mL.

[3] = previous experiment, thin film method without freeze-thawing, same EPC concentration (Copland 2003); cited from earlier work
NF-κB = settings: Table 3, miscellaneous inhibitors of NF-κB; step of NF-κB function inhibited, per the cited reference; cited from earlier work

## Cc1ccc(S(=O)(=O)/C=C/C#N)cc1 [Bay 11-7082, E3((4-methylphenyl)-sulfonyl)-2-propenenitrile, reference compound]
[1]
  log P: 1.63
[2]
  entrapment efficiency of NF-κB inhibitor in liposomes: around 60%
[2]; listed as Bay
  entrapment efficiency of NF-κB inhibitor in liposomes: approximately 60%

## methylated bovine serum albumin [mBSA]
[2]
  entrapment efficiency of protein antigen in liposomes: approximately 25%

B1: ovalbumin (protein, UniProt P01012 2-386, looked up)
Ovalbumin: GSIGAASMEFCFDVFKELKVHHANENIFYCPIAIMSALAMVYLGAKDSTRTQINKVVRFDKLPGFGDSIEAQCGTSVNVHSSLRDILNQITKPNDVYSFSLASRLYAEERYPILPEYLQCVKELYRGGLEPINFQTAADQARELINSWVESQTNGIIRNVLQPSSVDSQTAMVLVNAIVFKGLWEKAFKDEDTQAMPFRVTEQESKPVQMMYQIGLFRVASMASEKMKILELPFASGTMSMLVLLPDEVSGLEQLESIINFEKLTEWTSSNVMEERKIKVYLPRMKMEEKYNLTSVLMAMGITDVFSSSANLSGISSAESLKISQAVHAAHAEINEAGREVVGSAEAGVDAASVSEEFRADHPFLFCIKHIATNAVLFFGRCVSP
notes: model antigen
[2]
  entrapment efficiency of protein antigen in liposomes: ~20%

B2: FITC-OVA: fluorescein isothiocyanate conjugated to ovalbumin (conjugate, UniProt P01012 2-386, looked up)
Ovalbumin: B1 Ovalbumin
modifications: FITC label
notes: fluorescein isothiocyanate conjugated to ovalbumin
[3]
  entrapment efficiency of FITC-OVA in liposomes: less than 5%

B3: Uteroglobin (protein, UniProt P11684 22-91, looked up)
Uteroglobin: EICPSFQRVIETLLMDTPSSYEAAMELFSPDQDMREAGAQLKKLVDTLPQKPRESIIKLMEKIAQSSLCN
NF-κB
  Effect or point of inhibition: DNA binding

B4: NRF (NF-κB repression factor) (protein, UniProt O15226 1-690, looked up)
NF-kappa-B-repressing factor: MEKILQMAEGIDIGEMPSYDLVLSKPSKGQKRHLSTCDGQNPPKKQAGSKFHARPRFEPVHFVASSSKDERQEDPYGPQTKEVNEQTHFASMPRDIYQDYTQDSFSIQDGNSQYCDSSGFILTKDQPVTANMYFDSGNPAPSTTSQQANSQSTPEPSPSQTFPESVVAEKQYFIEKLTATIWKNLSNPEMTSGSDKINYTYMLTRCIQACKTNPEYIYAPLKEIPPADIPKNKKLLTDGYACEVRCQNIYLTTGYAGSKNGSRDRATELAVKLLQKRIEVRVVRRKFKHTFGEDLVVCQIGMSSYEFPPALKPPEDLVVLGKDASGQPIFNASAKHWTNFVITENANDAIGILNNSASFNKMSIEYKYEMMPNRTWRCRVFLQDHCLAEGYGTKKTSKHAAADEALKILQKTQPTYPSVKSSQCHTGSSPRGSGKKKDIKDLVVYENSSNPVCTLNDTAQFNRMTVEYVYERMTGLRWKCKVILESEVIAEAVGVKKTVKYEAAGEAVKTLKKTQPTVINNLKKGAVEDVISRNEIQGRSAEEAYKQQIKEDNIGNQLLRKMGWTGGGLGKSGEGIREPISVKEQHKREGLGLDVERVNKIAKRDIEQIIRNYARSESHTDLTFSRELTNDERKQIHQIAQKYGLKSKSHGVGHDRYLVVGRKRRKEDLLDQLKQEGQVGHYELVMPQAN
NF-κB
  Effect or point of inhibition: Transactivation
